What all share (test): split reporter
Experiment [1] addresses Yn-fused MDM2, wild type (FLAG-tagged MDM2-Yn) (UniProt Q00987).
Experiment [2] concerns the target M2-dIAZ-Yn (Yn-fused MDM2 deleted of the I1 and AZ domains) (UniProt Q00987).
Experiment [3] has as its target M2-dAZ-Yn (Yn-fused MDM2 deleted of the AZ domain) (UniProt Q00987).

Consider 2 substances from publication PMC5048913.

Chain of Yc-fused NS, wild type (Myc-tagged NS-Yc) (Q9BVP2 whole entry, the tested form may be a part): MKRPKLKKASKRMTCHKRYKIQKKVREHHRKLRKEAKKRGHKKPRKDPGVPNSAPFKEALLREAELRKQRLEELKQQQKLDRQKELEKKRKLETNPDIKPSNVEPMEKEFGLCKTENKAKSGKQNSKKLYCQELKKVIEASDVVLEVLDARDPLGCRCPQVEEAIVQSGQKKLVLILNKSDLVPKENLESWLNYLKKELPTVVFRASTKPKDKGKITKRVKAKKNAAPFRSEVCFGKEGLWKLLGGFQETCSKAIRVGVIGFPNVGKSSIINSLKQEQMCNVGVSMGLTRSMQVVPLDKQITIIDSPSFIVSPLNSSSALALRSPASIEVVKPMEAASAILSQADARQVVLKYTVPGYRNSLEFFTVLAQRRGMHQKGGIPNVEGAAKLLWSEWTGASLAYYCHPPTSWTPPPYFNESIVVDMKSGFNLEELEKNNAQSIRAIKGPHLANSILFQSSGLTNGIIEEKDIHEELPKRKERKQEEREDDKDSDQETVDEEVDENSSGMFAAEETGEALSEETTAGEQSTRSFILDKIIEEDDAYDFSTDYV
Chain of NS-GI-Yc (Yc-fused NS deleted of the BC and A domains) (Q9BVP2 116-464, stated change not applied): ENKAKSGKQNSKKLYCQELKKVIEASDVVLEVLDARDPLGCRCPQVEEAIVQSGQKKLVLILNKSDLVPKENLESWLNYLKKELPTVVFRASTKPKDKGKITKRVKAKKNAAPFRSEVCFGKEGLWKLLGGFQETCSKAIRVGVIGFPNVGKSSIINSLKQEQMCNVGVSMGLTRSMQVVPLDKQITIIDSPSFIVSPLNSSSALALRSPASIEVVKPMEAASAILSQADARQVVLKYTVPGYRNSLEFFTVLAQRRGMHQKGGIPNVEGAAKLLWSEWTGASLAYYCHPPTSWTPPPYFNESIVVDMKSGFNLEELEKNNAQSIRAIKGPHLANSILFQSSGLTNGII

With “Yc-fused NS, wild type (Myc-tagged NS-Yc) (from UniProt Q9BVP2 1-549) (natural protein)”, the results for the BiFC efficiency (percent YFP+ cells in the CFP+ population) in experiment [1], in experiment [2] and in experiment [3] were 48.7%, 9.4% and 15%, respectively.

In experiment [1], “NS-GI-Yc (Yc-fused NS deleted of the BC and A domains) (from UniProt Q9BVP2 116-464) (domain or fragment)” showed a BiFC efficiency (percent YFP+ cells in the CFP+ population) of 27.2%.
